pKd: −log10 of the molar value.

Test [1] addresses fluorescently labeled K48-Ub4 (S20C on the most distal Ub, Alexa Fluor 488) (UniProt P0CG48). Briefly: fluorescence polarisation.
For test [2], the target named is full-length (FL) UBQLN2 (UniProt Q9UHD9). Briefly: NMR titration.

In test [1], “UBQLN2 450-624 (from UniProt Q9UHD9 450-624) (domain or fragment)” showed a pKd of 5.57. In turn, “ubiquitin (Ub) (from UniProt P0CG48 1-76) (natural protein; other documents disagree on this pair)” showed a pKd in test [2] of 5.52.

(Values after article doi:10.1101/2021.11.12.467822.)
